Patent US20230399394A1 (SUNSHINE GUOJIAN PHARMACEUTICAL SHANGHAI, published 2023)

Legend:
[1] = target: T1, IL-33 mutant protein E55A (human, UniProt O95760 112-270); experiment: ELISA as Example 9; row E55A
T1 construct: Prokaryotic expression
T1 chain: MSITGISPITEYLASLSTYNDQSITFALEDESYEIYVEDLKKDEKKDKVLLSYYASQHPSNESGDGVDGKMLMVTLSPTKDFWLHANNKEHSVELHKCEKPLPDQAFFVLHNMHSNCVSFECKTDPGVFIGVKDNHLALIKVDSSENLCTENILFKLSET
Method: (§1) SA protein was diluted to 2 μg/mL to coat ELISA plate at 100 μL/well overnight at 4° C. The plate was washed with PBST (PBS containing 0.05% Tween20) for 3 times, and blocked with 2% BSA prepared in PBS at 200 μL/well, at room temperature for 2 h. After the plate was washed twice with PBST, IL-33-his-biotin protein was diluted to 1 μg/mL with 1% BSA prepared in PBST, and was added to ELISA plate at 100 μL/well. The plate was incubated at room temperature for 1 h, and each monoclonal antibody was diluted with 1% BSA prepared in PBST in a 3-fold gradient. The highest concentration of antibody was 10 μg/mL, and the antibody was diluted for 12 gradients. Each diluted monoclonal antibody was added to ELISA wells with 100 μL/well, and the plate was incubated at room temperature for 1 h. Each sample was added to duplicate wells in parallel. The plate was washed with PBST for 3 times, and HRP-anti human IgG Fc secondary antibody prepared with PBST was diluted at an appropriate ratio, and was added to ELISA wells at 100 μL/well. […] Each reaction solution was shaken uniformly and OD450 nm was read on a microplate reader. The data was analyzed and EC₅₀ was calculated.
(§2) Subsequently, according to the experimental method of Example 9, the affinity of the above mutant proteins to 874F7-Hu1 was determined, and IL-33 proteins (WT-1, WT-2, WT-3, and WT-4) without any mutation were set as controls.

[2] = target: T2, IL-33 mutant protein Y53A (human, UniProt O95760 112-270); experiment: ELISA as Example 9; row Y53A
T2 construct: Prokaryotic expression
T2 chain: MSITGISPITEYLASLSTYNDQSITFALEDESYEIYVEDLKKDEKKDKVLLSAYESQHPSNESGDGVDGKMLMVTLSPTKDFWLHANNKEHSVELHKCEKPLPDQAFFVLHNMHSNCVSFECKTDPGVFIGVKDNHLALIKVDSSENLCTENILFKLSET
Method: as §1, §2

[3] = target: T3, IL-33 mutant protein E62A (human, UniProt O95760 112-270); experiment: ELISA as Example 9; row E62A against WT-3
T3 construct: Prokaryotic expression
T3 chain: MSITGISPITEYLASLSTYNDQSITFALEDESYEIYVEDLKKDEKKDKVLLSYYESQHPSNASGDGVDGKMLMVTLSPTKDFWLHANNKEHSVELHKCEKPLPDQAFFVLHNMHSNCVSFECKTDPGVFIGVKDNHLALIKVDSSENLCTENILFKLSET
Method: as §1, §2

Human IL-33-his = target: T4, Human IL-33-his (human, UniProt O95760 112-270, biotinylated with EZ-Link NHS-Biotin where used as IL-33-his-biotin); experiment: competition ELISA as Example 10, ST2-Fc on plate; competitor ST2-Fc
T4 construct: Used plain (SPR, cell assays) and biotinylated (ELISA); also called IL-33-his-biotin
T4 sequence: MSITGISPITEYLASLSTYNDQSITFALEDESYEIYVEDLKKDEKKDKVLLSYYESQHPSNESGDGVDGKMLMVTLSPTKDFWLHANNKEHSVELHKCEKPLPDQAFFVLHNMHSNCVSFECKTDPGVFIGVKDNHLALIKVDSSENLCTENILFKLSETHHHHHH
Method: ST2-Fc protein was diluted to 1 μg/mL with ELISA coating solution to coat ELISA plate with 100 μL/well. The plate was placed in a wet box at 4° C. for 16 h for coating. The ELISA plate was washed 3 times with PBST, and then was blocked with 2% BSA prepared in PBS at 200 μL/well at room temperature for 2 h. The plate was washed once with PBST, and was patted dry to remove the excess blocking solution. Each monoclonal antibody was diluted with 1% BSA prepared in PBST in a 3-fold gradient. The highest concentration of antibody was 10 μg/mL, and the antibody was diluted for 11 gradients. The diluted antibody was mixed 1:1 with 10 ng/ml IL-33-his-biotin, and then the mixture was added into the ELISA well at 100 μL/well. The plate was incubated at room temperature for 1 h. Each concentration was added to duplicate wells in parallel (maximum final concentration of antibody was […], final concentration of IL-33-his-biotin was 5 ng/mL). Unbound or non-specifically bound primary antibodies were washed out. According to the instructions of the antibody, HRP labeled streptavidin secondary antibody was diluted to an appropriate concentration with antibody diluent solution, then it was added to ELISA plate with 100 μL/well, and was incubated at room temperature for 1 h. The ELISA plate was washed with PBST for 5 times, and was patted dry on absorbent paper to remove excess liquid. TMB developing solution was added with 100 μL/well for development to an appropriate degree. 2M H₂SO₄ was added with 70 μL/well to terminate development, and the absorbance was measured at 450 nm on a multifunctional microplate reader. The data were analyzed.
The blocking effect of the above humanized antibodies on the binding of IL-33 to its receptor ST2 was determined by the ELISA method, and the relevant experimental methods were referred to Example 10.

B1: 874F7-Hu1 (antibody, human IgG4 S228P, kappa)
heavy: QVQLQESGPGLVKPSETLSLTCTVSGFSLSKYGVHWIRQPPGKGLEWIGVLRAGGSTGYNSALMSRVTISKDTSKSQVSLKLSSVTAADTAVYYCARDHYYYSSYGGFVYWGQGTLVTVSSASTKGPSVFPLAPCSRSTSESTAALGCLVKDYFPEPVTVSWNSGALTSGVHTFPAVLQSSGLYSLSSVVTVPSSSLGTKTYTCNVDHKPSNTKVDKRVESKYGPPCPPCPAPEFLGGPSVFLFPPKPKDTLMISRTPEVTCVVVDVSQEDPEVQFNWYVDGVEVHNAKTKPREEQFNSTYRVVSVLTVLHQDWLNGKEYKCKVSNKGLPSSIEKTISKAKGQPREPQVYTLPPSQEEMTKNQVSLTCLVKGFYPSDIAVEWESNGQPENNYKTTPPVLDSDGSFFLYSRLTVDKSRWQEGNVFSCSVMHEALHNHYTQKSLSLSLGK
light: DIQMTQSPSSVSASVGDRVTITCLASQTIGAWLAWYQQKPGKSPKLLIYAATRLADGVPSRFSGSGSGTDFTLTISSLQPEDFATYYCQQLDSSPYTFGQGTKVEIKRTVAAPSVFIFPPSDEQLKSGTASVVCLLNNFYPREAKVQWKVDNALQSGNSQESVTEQDSKDSTYSLSSTLTLSKADYEKHKVYACEVTHQGLSSPVTKSFNRGEC
notes: also called 874F7-Hul; humanized antibody 874F7-Hu1
EC50 [1]: 330 pM
EC50 [2]: 440 pM
Affinity decline ratio [3]: 0.8 fold
IC50 (Human IL-33-his): 451 pM
